# T1: 24P4C12 protein (human) (human, UniProt Q53GD3 1-710)
# T1 construct: whole, on cells; also called SLC44A4; CTL4
# T1 sequence (looked up): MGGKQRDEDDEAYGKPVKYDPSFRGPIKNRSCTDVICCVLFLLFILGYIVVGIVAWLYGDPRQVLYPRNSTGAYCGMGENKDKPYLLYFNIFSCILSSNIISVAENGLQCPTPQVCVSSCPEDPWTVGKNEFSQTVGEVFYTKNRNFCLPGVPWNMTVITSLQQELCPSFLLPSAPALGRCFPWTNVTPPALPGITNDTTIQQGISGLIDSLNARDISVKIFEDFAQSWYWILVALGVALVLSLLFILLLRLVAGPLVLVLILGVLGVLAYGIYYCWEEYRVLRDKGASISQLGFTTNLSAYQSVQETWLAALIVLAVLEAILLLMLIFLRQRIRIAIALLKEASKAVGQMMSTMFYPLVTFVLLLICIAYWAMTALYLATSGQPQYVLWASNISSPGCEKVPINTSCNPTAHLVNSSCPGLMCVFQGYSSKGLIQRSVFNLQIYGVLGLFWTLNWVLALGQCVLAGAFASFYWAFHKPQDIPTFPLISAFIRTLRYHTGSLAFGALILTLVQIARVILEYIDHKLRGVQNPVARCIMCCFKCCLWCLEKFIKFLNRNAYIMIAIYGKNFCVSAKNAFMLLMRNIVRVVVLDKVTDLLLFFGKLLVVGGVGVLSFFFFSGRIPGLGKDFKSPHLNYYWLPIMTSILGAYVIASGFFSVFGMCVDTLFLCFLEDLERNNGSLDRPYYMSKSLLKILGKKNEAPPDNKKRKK
# Target: T1, 24P4C12 protein (human)
# Assay: FACS saturation equilibrium binding on LNCaP cells
# Protocol: The affinity to LNCaP cells was determined by FACS using saturation equilibrium binding assay. […] At the end of incubation, the cells were washed with FACS Buffer and incubated with 100 ul of detection antibody (anti-hIgG-PE) for 45 minutes at 4° C., the cells were then washed with FACS Buffer, fixed with 2% Formaldehyde and analyzed using FACScan. FACS data were analyzed using CellQuest Pro software to acquire histogram and Mean Fluoresces Intensity (MFI) values of each point. The MFI values were used to calculate the binding affinity using non-linear regression using Prism4 software (Graphpad Software Inc. San Diego Calif.).
row,Kd,Binder
1,3.4 nM,"Ha5-11b1.1 (antibody, V domains shown) VH: QVQLVESGGGVVQPGRSLRLSCAASGFTFSSHGMHWVRQAPGKGLEWVAVIWYDGSNKYYADSVKGRFTISRDNSKNTLYLQMNSLRAEDTAVYYCARDQYSGYDLYYYYGMDVWGQGTTVTVSS VL: not shown"
2,1.1 nM,"Ha5-7acd20.1.1 (antibody, V domains shown) VH: QVQLVESGGGVVQPGRSLRLSCAASGFTFSSYGMHWVRQAPGKGLEWVAVIWYDGRNKYYVDSVKGRFTISRDNSKNTLYLQMNSLRAEDTAVYYCARDRYSGSDYYYYYGMDVWGQGTTVTVSS VL: DIQMTQSPSSLSASVGDRVTITCRASQGIYNYLAWFQQKPGKAPKSLIYAASSLQSGVPSKFSGSGSGTVFTLTISSLQPEDFATYYCQQYTVYPFTFGPGTKVDFK"
3,0.7 nM,"Ha5-7acd16.1 (antibody, V domains shown, also called HA5-acd16.1; copies: 2 + 2) VH: QVQLVESGGGVVQPGRSLRLSCAASGFTFSSHGMHWVRQAPGKGLEWVAVIWYDGSNKYYADSVKGRFTISRDNSKNTLYLQMNSLRAEDTAVYYCARDAYSGYDYYYYYGMDVWGQGTTVTVSS VL: DIQMTQSPSSLSASVGDRVTITCRASQGIYTYLAWFQQKPGKAPKSLIYGASSLQSGVPSKFSGSGSGTDFTLTITSLQPEDFATYYCQQYTIYPFSFGPGTKVDIK"
4,4.1 nM,"Ha5-1(5)1 (antibody, V domains shown, also called HA5-1(5)1.1) VH: QVQLVESGGGVVQPGRSLRLSCGASGFTFSSYGMHWVRQAPGKGLEWVAVMSYDGSKKYYTDSVKGRFTISRDNSKNTLYLQMNSLRVEDTAVYYCARDGGDYVRYYYYGMDVWGQGTTVTVSS VL: DIQMTQSPSSLSASVGDRVTITCRARQGITYHLAWYQQRPGKVPKLLIYDTSSLQSGVPSRFSGSGSGTDFTLTISSLQPEDVATYYCQRFNSAPLTFGGGTKVEIK"
5,2.75 nM,"Ha5-1(5)2.1 (antibody, V domains shown) VH: QVQLVESGGGVVQPGRSLRLSCAASGFTFSSYGMHWVRQAPGKGLEWVAVMSYDGSKKFYTDSVKGRFTISRDNSKNTLYLQMNSLRAEDTAVYYCARDGGDYVRYHYYGMDVWGQGTTVTVSS VL: DIQMTQSPSTLSASIGDRVTITCRASQGISYYLAWYQQKPGKIPKLLIYDTSSLQSGVPSRFSGSRSGTDLSLTISSLQPEDVATYYCQRYDSAPLTFGGGTKVEIK"
6,1.85 nM,"Ha5-7acd7.1.1 (antibody, V domains shown, copies: 2 + 2) VH: QVQLQESGPGLVKPSETLSLTCTVSGGSVSSGGYYWSWIRQPPGKGLEWIGYIYYSGGTNYNPSLKSRVTISVDTSKNQFSLKLTSVTAADTAVYYCARESGYCTNVACFPDAFDIWGQGTMVTVSS VL: DVVMTQSPFSLPVTPGEPASISCRSSQSLLHSNGFNFLDWYLQKPGQSPQLLIYLGSIRASGVPDRFSGSGSGTDFTLKISRVEAEDVGVYYCMQALQTPLTFGGGTRVEIK"
7,4.15 nM,"Ha5-7be31.1 (antibody, V domains shown, copies: 2 + 2) VH: QVQLQESGPGLVKPSETLSLTCTVSGGSISSYYWSWIRQPPGKGLEWIGYIYYSGSTNYNPSLKSRVTISVDTSKNQFSLKLSSVTAADTAVYYCARGYYYGAGSYGMDVWGQGTTVTVSS VL: DIVMTQSPLSLPVTPGEPASISCRSSQSLLHSTGFNYLDWYLQKPGQSPQLLIYLGSIRASGVPDRFSGSGSGTDFTLKISRVETEDVGVYYCMQTLQTPITFGQGTRLEIK"
8,0.45 nM,"Ha5-3(3,5)37.1 (antibody, V domains shown) VH: QVQLQESGPGLVKPSETLSLTCTVSGGSISSYYWSWIRQPPGKGLEWIGYIYYSGSTNYNPSLKSRVTISVDTSKNQFSLKLNSVTAADTAVYYCARGYYYGSESPYGMDVWGQGTTVTVSS VL: DIVMTQSPLSLPVTPGEPASISCRSSQSLLHSNGHNYLDWYLQKPGQSPHLLIYLGSNRDSGVPDRFSGSGSGTDFTLKISRVEAEDVGVYYCMQALQIPCSFGQGTKLEIK"
9,0.19 nM,"Ha5-7acd19.1 (antibody, V domains shown, Labelled with Alexa Fluor 488 dye in the FIG. 14 experiment; the site is not stated and the letters do not carry it., copies: 2 + 2) VH: QVQLQESGPGLVKPSETLSLTCTVSGGSISSYYWSWIRQPPGKGLEWIGFIYYTGSTNYNPSLKSRVTISVDTSKNQFSLKLSSVTAADTAVYYCANTYYYGSGYGMDVWGQGTTVTVSS VL: not shown"

# Second part, the binder before the results:
row,Binder,Kd
1,"Ha5-7acd10.1 (antibody, V domains shown, copies: 2 + 2) VH: QVQLVESGGGVVQPGRSLRLSCAASGFTFSSYGMHWVRQAPGKGLEWVAVIWYDGSNKYYADSVKGRFTISRDNSKNTLYLQMNSLRAEDTAVYYCARDRYSGYDYYYYYGMDVWGQGTTVTVSS VL: DIQMTQSPSSLSASVGDRVTITCRASQGIYNYLAWFQQKPGKAPKSLIYAASSLHSGVPSKFSGGGSGTDFTLTISSLQPEDFATYYCQQYTIYPFTFGPGTKVDIK",1.26 nM
2,"Ha5-7acd4.1 (antibody, V domains shown) VH: QVQLVESGGGVVQPGRSLRLSCAASGFTFSSYGMHWVRQAPGKGLEWVAVIWYDGSNKYYADSVKGRFTISRDNSKNTLYLQMNSLRAEDTAVYYCARDRYSGYDYYYYYGMDVWGQGTTVTVSS VL: DIQMTQSPSSLSASVGDRVTITCRASQVIYNYLAWFQQKPGKAPKSLIYGASSLHSGVPSKFSGSGSGTEFTLTISSLQPEDFATYYCQQYTIYPFSFGPGTKVDIK",0.99 nM
3,"Ha5-3(1,4)7.1 (antibody, V domains shown, Labelled with Alexa Fluor 488 in the FIG. 14 experiment. The site is not stated and the letters do not carry it.) VH: QVQLVESGGGVVQPGRSLRLSCAASGFTFSSYGMHWVRQAPGKGLEWVAVIWYDGSNKYYADSVKGRFTISRDNSKNTLYLQMNSLRAEDTAVYYCARDRYSGYGYYYYYGMDVWGQGTTVTVSS VL: DIQMTQSPSSLSASVGDRVTITCRASQDISNYLAWFQQKPGKAPKSLIYAASSLHSGVPSKFSGSGSGTDFTLTISSLQPEDFATYYCQQYTIYPFTFGPGTKVDIK",5.5 nM
4,"Ha5-7acd3.1 (antibody, V domains shown) VH: QVQLVESGGGVVQPGRSLRLSCAASGFTFSSYGMHWVRQAPGKGLEWVAVIWYDGSNKYYTDSVKGRFTISRDNSKNTLYLQMNSLRAEDTAVYYCARDRYSGYDYFYYYGMDVWGQGTTVTVSS VL: DIQMTQSPSSLSASVGDRVTITCRASQGIYNYLAWFQQKPGKAPRSLIYAASSLHSGVPSKFSGSGSGTDFTLTISSLQPEDFATYYCQQYTIYPFTFGPGTKVDIK",4.4 nM
5,"Ha5-7be20.1 (antibody, V domains shown) VH: QVQLQESGPGLVKPSETLSLTCTVSGGSISSYYWSWIRQPPGKGLEWIGYIYYSGSTNYNPSLKSRVTISVDTSKNQFSLKLSSVTAADTAVYYCARGYYYGSGSYGLDVWGQGTTVTVSS VL: not shown",3.2 nM
6,"Ha5-8ac4.1 (antibody, V domains shown, also called Ha5-8acd4.1) VH: QVQLQESGPGLVKPSETLSLTCTVSGGSISRYYWSWIRQPAGKGLERIGRIYTSGSTDYNPSLKSRVTMSVDTSKNQFSLKLRSVTAADTAVYYCARDLYSNGYWYFDLWGRGTLVTVSS VL: QSVLTQPPSVSGAPGQRVTISCTGSSSNIGAGYDVHWYQQLPGTAPKLLIYGNSNRPSGVPDRFSGSKSGTSASLAITGLQAEDEADYYCQSYDSSLSGVVFGGGTKLTVL",0.07 nM
7,"Ha5-7acd2.1 (antibody, V domains shown) VH: QVQLQESGPGLVKPSETLSLTCTVSGGSISSYYWSWIRQPPGKGLEWIGYIYYSGSTNYNPSLKSRVTISVDTSKNQFSLKLSSVTAADTAVYYCANTYYYGSGYGMDVWGQGTTVTVSS VL: DIVMTQSPLSLPVTPGEPASISCRSSQSLLHSTGHNYLDWYLQKPGQSPQLLIYLGSIRASGVPDRFSGSGSGTDFTLKISRVEAEDVGVYYCMQALQTITFGQGTRLEIK",1.95 nM

# Reference: patent US20090175796A1 (AGENSYS, published 2009)
